Experimental findings from patent US20170296640A1 (IMMATICS BIOTECHNOLOGIES, published 2017) are described below.

B1: FILDDSALYL (SEQ ID NO: 45) (peptide)
peptide: FILDDSALYL
B2: LLLDGLIYL (SEQ ID NO: 50) (peptide)
peptide: LLLDGLIYL
B3: YLTAEILELAGN (SEQ ID NO: 38) (peptide)
peptide: YLTAEILELAGN
B4: SLSSERYYL (SEQ ID NO: 35) (peptide)
peptide: SLSSERYYL
B5: TLQEETAVYL (SEQ ID NO: 72) (peptide)
peptide: TLQEETAVYL
B6: TLLGFFLAKV (SEQ ID NO: 4) (peptide)
peptide: TLLGFFLAKV
B7: VLLEDVDAAFL (SEQ ID NO: 52) (peptide)
peptide: VLLEDVDAAFL
B8: KLAPIPVEL (SEQ ID NO: 66) (peptide)
peptide: KLAPIPVEL
B9: LLANIVPIAMLV (SEQ ID NO: 33) (peptide)
peptide: LLANIVPIAMLV
B10: ILASIFETV (SEQ ID NO: 41) (peptide)
peptide: ILASIFETV
B11: SLLNKDLSL (SEQ ID NO: 61) (peptide)
peptide: SLLNKDLSL
B12: VLNEDELPSV (SEQ ID NO: 32) (peptide)
peptide: VLNEDELPSV
B13: FLNSVIVDL (SEQ ID NO: 40) (peptide)
peptide: FLNSVIVDL
B14: AALKYIPSV (SEQ ID NO: 75) (peptide)
peptide: AALKYIPSV
B15: YLFDEIDQA (SEQ ID NO: 80) (peptide)
peptide: YLFDEIDQA
B16: FLVEVSNDV (SEQ ID NO: 64) (peptide)
peptide: FLVEVSNDV
B17: VILDIPLLFET (SEQ ID NO: 36) (peptide)
peptide: VILDIPLLFET
B18: QLLPQGIVPAL (SEQ ID NO: 39) (peptide)
peptide: QLLPQGIVPAL
B19: SLDLRPLEV (SEQ ID NO: 74) (peptide)
peptide: SLDLRPLEV
B20: VLIEILQKA (SEQ ID NO: 70) (peptide)
peptide: VLIEILQKA
B21: KLYDEESLL (SEQ ID NO: 31) (peptide)
peptide: KLYDEESLL
B22: VLLDYVGNVQL (SEQ ID NO: 71) (peptide)
peptide: VLLDYVGNVQL
B23: LTIDTQYYL (SEQ ID NO: 3) (peptide)
peptide: LTIDTQYYL
B24: SLAELDEKISA (SEQ ID NO: 302) (peptide)
peptide: SLAELDEKISA
B25: QIAAFLFTV (SEQ ID NO: 68) (peptide)
peptide: QIAAFLFTV
B26: LLATVNVAL (SEQ ID NO: 67) (peptide)
peptide: LLATVNVAL
B27: QLAPFLPQL (SEQ ID NO: 58) (peptide)
peptide: QLAPFLPQL
B28: SLSFVSPSL (SEQ ID NO: 309) (peptide)
peptide: SLSFVSPSL
B29: NLLGMIFSM (SEQ ID NO: 7) (peptide)
peptide: NLLGMIFSM
B30: FVWEASHYL (SEQ ID NO: 303) (peptide)
peptide: FVWEASHYL
B31: ALIRLDDLFL (SEQ ID NO: 304) (peptide)
peptide: ALIRLDDLFL
B32: DIFDAMFSV (SEQ ID NO: 54) (peptide)
peptide: DIFDAMFSV
B33: ALAPYLDLL (SEQ ID NO: 62) (peptide)
peptide: ALAPYLDLL
B34: FLLPVAVKL (SEQ ID NO: 307) (peptide)
peptide: FLLPVAVKL
B35: TLITLPLLFL (SEQ ID NO: 6) (peptide)
peptide: TLITLPLLFL
B36: ALLEGVKNV (SEQ ID NO: 43) (peptide)
peptide: ALLEGVKNV
B37: LLWEDGVTEA (SEQ ID NO: 34) (peptide)
peptide: LLWEDGVTEA
B38: YLGEEYPEV (SEQ ID NO: 73) (peptide)
peptide: YLGEEYPEV
B39: AMKEEKEQL (SEQ ID NO: 79) (peptide)
peptide: AMKEEKEQL
B40: SLLGNSPVL (SEQ ID NO: 51) (peptide)
peptide: SLLGNSPVL
B41: GLLPKLTAL (SEQ ID NO: 47) (peptide)
peptide: GLLPKLTAL
B42: RLHREVAQV (SEQ ID NO: 59) (peptide)
peptide: RLHREVAQV
B43: FIIEEQSFL (SEQ ID NO: 44) (peptide)
peptide: FIIEEQSFL
B44: ALADLVPVDVVV (SEQ ID NO: 76) (peptide)
peptide: ALADLVPVDVVV
B45: VLGNALEGV (SEQ ID NO: 37) (peptide)
peptide: VLGNALEGV
B46: VMAEAPPGV (SEQ ID NO: 310) (peptide)
peptide: VMAEAPPGV
B47: FLVEEIFQT (SEQ ID NO: 46) (peptide)
peptide: FLVEEIFQT
B48: ALIEEAYGL (SEQ ID NO: 63) (peptide)
peptide: ALIEEAYGL
B49: GLQDLLFSL (SEQ ID NO: 56) (peptide)
peptide: GLQDLLFSL
B50: YLQDLVERA (SEQ ID NO: 42) (peptide)
peptide: YLQDLVERA
B51: LIDDKGTIKL (SEQ ID NO: 314) (peptide)
peptide: LIDDKGTIKL
B52: TLLAFPLLL (SEQ ID NO: 69) (peptide)
peptide: TLLAFPLLL
B53: KILDEDLYI (SEQ ID NO: 48) (peptide)
peptide: KILDEDLYI
B54: VLQGLTFTL (SEQ ID NO: 5) (peptide)
peptide: VLQGLTFTL
B55: SLLIDVITV (SEQ ID NO: 60) (peptide)
peptide: SLLIDVITV
B56: SLLDQIPEM (SEQ ID NO: 308) (peptide)
peptide: SLLDQIPEM
B57: ILVEVDLVQA (SEQ ID NO: 55) (peptide)
peptide: ILVEVDLVQA
B58: AMEEAVAQV (SEQ ID NO: 78) (peptide)
peptide: AMEEAVAQV
B59: AQVALVNEV (SEQ ID NO: 306) (peptide)
peptide: AQVALVNEV
B60: NLTDVSPDL (SEQ ID NO: 65) (peptide)
peptide: NLTDVSPDL
B61: YLHRQVAAV (SEQ ID NO: 311) (peptide)
peptide: YLHRQVAAV
B62: LQIGDFVSV (SEQ ID NO: 57) (peptide)
peptide: LQIGDFVSV
B63: TILGDPQILL (SEQ ID NO: 49) (peptide)
peptide: TILGDPQILL
B64: AMLAQQMQL (SEQ ID NO: 305) (peptide)
peptide: AMLAQQMQL
B65: FLREYFERL (SEQ ID NO: 53) (peptide)
peptide: FLREYFERL
B66: ALLDVSNNYGI (SEQ ID NO: 77) (peptide)
peptide: ALLDVSNNYGI

For the assay, the target named is T1, HLA-A*02:01 (peptide-receptive MHC class I monomer after UV cleavage of the UV-sensitive ligand) (human).
T1 construct: MHC monomers loaded by UV-ligand exchange and captured on streptavidin plates
The assay can be described thus: UV ligand-exchange ELISA; exchange yield grade (+ >=10%, ++ >=20%, +++ >=50%, ++++ >=75%). In short, it runs like this: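 Exchange yield is an ELISA read-out: complexes diluted 100-fold, captured on streptavidin plates, detected with HRP anti-β2m and TMB at 450 nm. Standard curve from refolded HLA-A*02:01/MLA-001 (15-500 ng/ml); complexes made by UV-triggered displacement of a photolabile ligand by test peptide.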
As for B1, the peptide exchange yield was 50 to 75%.

On to B2, for which the peptide exchange yield is 50 to 75%.

For the molecule B3, the peptide exchange yield lay within 20 to 50%.

On to B4, for which the peptide exchange yield fell in the range of 50 to 75%.

Molecule B5 displayed a peptide exchange yield of 20 to 50%.

As to B6, the peptide exchange yield was 20 to 50%.

B7 displayed a peptide exchange yield of no less than 75%.

For B8, the peptide exchange yield is no less than 75%.

Molecule B9 displayed a peptide exchange yield of no less than 75%.

The molecule B10 showed a peptide exchange yield of no less than 75%.

B11 gave a peptide exchange yield of no less than 75%.

The molecule B12 came in with a peptide exchange yield of 50 to 75%.

In turn, B13 came in with a peptide exchange yield of no less than 75%.

B14 registered a peptide exchange yield of 50 to 75%.

B15 displayed a peptide exchange yield of 50 to 75%.

Molecule B16 showed a peptide exchange yield of no less than 75%.

Molecule B17 gave a peptide exchange yield of 50 to 75%.

Regarding B18, the peptide exchange yield was in the range of 50 to 75%.

Turning to B19, the peptide exchange yield is no less than 75%.

The molecule B20 showed a peptide exchange yield of no less than 75%.

On to B21, for which the peptide exchange yield is no less than 75%.

The molecule B22 had a peptide exchange yield of no less than 75%.

As for B23, the peptide exchange yield was 50 to 75%.

Molecule B24 yielded a peptide exchange yield of 50 to 75%.

Turning to B25, the peptide exchange yield was no less than 75%.

Molecule B26 came in with a peptide exchange yield of no less than 75%.

Take B27: the peptide exchange yield lay in the range of 50 to 75%.

In turn, B28 returned a peptide exchange yield of 50 to 75%.

In the case of B29, the peptide exchange yield was no less than 75%.

As to B30, the peptide exchange yield was no less than 75%.

B31 yielded a peptide exchange yield of 50 to 75%.

Regarding B32, the binding result is given as “binds”.

As to B33, the peptide exchange yield is no less than 75%.

B34 came in with a peptide exchange yield of 50 to 75%.

The molecule B35 gave a peptide exchange yield of 50 to 75%.

Molecule B36 displayed a peptide exchange yield of 50 to 75%.

B37 gave a peptide exchange yield of 50 to 75%.

The molecule B38 came in with a peptide exchange yield of 50 to 75%.

Molecule B39 showed a peptide exchange yield of 20 to 50%.

For B40, the peptide exchange yield is no less than 75%.

In turn, B41 showed a peptide exchange yield of 50 to 75%.

In turn, B42 had a peptide exchange yield of 50 to 75%.

In turn, B43 displayed a peptide exchange yield of 50 to 75%.

B44 gave a peptide exchange yield of no less than 75%.

Regarding B45, the peptide exchange yield was 50 to 75%.

For the molecule B46, the peptide exchange yield was 50 to 75%.

On to B47, for which the peptide exchange yield lay within 50 to 75%.

For the molecule B48, the peptide exchange yield is 50 to 75%.

As to B49, the peptide exchange yield lay within 50 to 75%.

B50 returned a peptide exchange yield of no less than 75%.

The molecule B51 gave a peptide exchange yield of 20 to 50%.

B52 showed a peptide exchange yield of no less than 75%.

The molecule B53 returned a peptide exchange yield of 50 to 75%.

B54 showed a peptide exchange yield of 50 to 75%.

With B55, the peptide exchange yield lay in the range of 50 to 75%.

B56 showed a peptide exchange yield of 50 to 75%.

The molecule B57 came in with a peptide exchange yield of no less than 75%.

For the molecule B58, the peptide exchange yield fell in the range of 50 to 75%.

In turn, B59 yielded a peptide exchange yield of 50 to 75%.

In turn, B60 gave a peptide exchange yield of 50 to 75%.

With B61, the peptide exchange yield lay in the range of 50 to 75%.

B62 displayed a peptide exchange yield of no less than 75%.

For the molecule B63, the peptide exchange yield was no less than 75%.

Take B64: the peptide exchange yield was in the range of 50 to 75%.

The molecule B65 showed a peptide exchange yield of no less than 75%.

Molecule B66 gave a peptide exchange yield of no less than 75%.
